The values below come from patent publication US20230348630A1 (BEIJING MABWORKS BIOTECH, published 2023).

As a reminder, the EC50 (read off the curve) is the concentration that produces a half-maximal response. As usually defined, the EC50 is the midpoint of the concentration-response curve. One may read the Kd as the free concentration of one partner at which half of the binding sites on the other are occupied at equilibrium, for simple one-to-one binding.

For test [1], the target named is T1, human BCMA on HEK293A/human BCMA cells (human, UniProt Q02223 1-184).
T1 sequence: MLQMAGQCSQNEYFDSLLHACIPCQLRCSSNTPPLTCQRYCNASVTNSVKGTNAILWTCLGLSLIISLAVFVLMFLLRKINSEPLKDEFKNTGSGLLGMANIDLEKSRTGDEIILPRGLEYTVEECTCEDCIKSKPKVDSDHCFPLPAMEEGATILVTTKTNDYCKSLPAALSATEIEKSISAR
The experiment in a line: flow cytometry on HEK293A/human BCMA cells, without soluble BCMA. The protocol:
Briefly, 10⁵ HEK293A/human BCMA cells in 100 μl culture medium were seeded on a 96-well plate, and the plate […] After 1-h incubation at 4° C., the plate was washed with PBS for three times, added with APC-goat-anti-mouse IgG (1:500 dilution, Cat #: 405308, BioLegend, US), inducted at 4° C. for 1 h, washed with PBS for three times, and measured for cell fluorescence using a FACS analyzer (BD).

The target of test [2] is T2, human TACI on HEK293A/human TACI cells (human, UniProt O14836 1-293).
T2 sequence: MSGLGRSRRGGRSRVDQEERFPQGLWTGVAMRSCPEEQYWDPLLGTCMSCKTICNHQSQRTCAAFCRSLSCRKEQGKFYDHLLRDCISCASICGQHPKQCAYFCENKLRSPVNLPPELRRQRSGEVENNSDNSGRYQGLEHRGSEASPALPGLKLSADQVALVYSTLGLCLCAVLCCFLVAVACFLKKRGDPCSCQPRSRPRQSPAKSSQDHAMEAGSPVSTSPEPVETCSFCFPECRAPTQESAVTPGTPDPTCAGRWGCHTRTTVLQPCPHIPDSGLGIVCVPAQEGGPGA
The experiment in a line: flow cytometry on HEK293A/human TACI cells. In general terms: A flow cytometer gives signals particle by particle.

Test [3] has as its target T1, human BCMA on HEK293A/human BCMA cells. The test can be described thus: flow cytometry on HEK293A/human BCMA cells. As to the method:
(§1) The anti-BCMA antibody's binding capability to cell surface BCMAs was tested by FACS. Briefly, HEK293A/human BCMA cells, HEK293A/monkey BCMA cells and HEK293A/mouse BCMA cells, as generated in Example 1, were collected, digested with trypsin, and subjected to centrifugation at 300 g for 5 min. The cells were suspended in PBS, and subjected to centrifugation again. The cells were re-suspended in PBS with 2% FBS at the cell density at 4×10⁶/ml, and 50 μl cells were seeded onto a U-bottom plate. […] The plate was washed with 2% FBS-PBS for three times, added with 50 μl PE-labeled goat-anti-human IgG (H+L) (1: 500), and incubated at room temperature for 45 min. The plate was washed with 2% FBS-PBS again for three times, and added with 150 μl 2% FBS-PBS to suspend the cells. The plate was measured for cell fluorescence using a cytometry, and the data was processed with FlowJo and analyzed with GraphPad.

For test [4], the target named is T3, human BAFFR on HEK293A/human BAFFR cells (human, UniProt Q96RJ3 1-184).
T3 sequence: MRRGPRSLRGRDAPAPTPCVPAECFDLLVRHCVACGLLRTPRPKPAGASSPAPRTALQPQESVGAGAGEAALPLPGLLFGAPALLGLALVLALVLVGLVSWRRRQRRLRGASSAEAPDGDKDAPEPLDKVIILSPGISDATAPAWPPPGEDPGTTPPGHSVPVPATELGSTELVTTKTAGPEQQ
The test can be described thus: flow cytometry on HEK293A/human BAFFR cells.

For test [5], the target named is T4, BCMA-his protein (Cat #: BCA-H522y, ACRO) (human, UniProt Q02223 1-54).
T4 construct: Bought recombinant protein; the construct is most likely only a soluble part of it; also called BCMA protein; human BCMA
T4 sequence: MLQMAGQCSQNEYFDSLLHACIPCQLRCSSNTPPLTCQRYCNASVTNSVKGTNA
The experiment in a line: SPR (BIAcore 8K), antibody captured by anti-human Fc, BCMA protein as analyte. As to the method: Briefly, the mouse anti-human Fc antibody (Cat #: BR100839, cytiva) was coupled to CMS biosensor chip. […] Chip regeneration was performed with 3 M MgCl₂.
A general note: SPR reads the build-up and loss of mass on a sensor chip optically.

Test [6] addresses T5, mouse BCMA on HEK293A/mouse BCMA cells (mouse, UniProt O88472 1-185).
T5 sequence: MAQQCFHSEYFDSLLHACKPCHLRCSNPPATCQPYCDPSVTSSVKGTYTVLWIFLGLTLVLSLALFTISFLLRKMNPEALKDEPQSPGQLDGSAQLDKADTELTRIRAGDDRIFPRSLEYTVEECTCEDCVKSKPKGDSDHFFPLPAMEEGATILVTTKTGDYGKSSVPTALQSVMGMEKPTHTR
The test can be described thus: flow cytometry on HEK293A/mouse BCMA cells. The protocol:
as §1

Test [7] has as its target T1, human BCMA on HEK293A/human BCMA cells. The experiment in a line: flow cytometry on HEK293A/human BCMA cells in the presence of 1 µg/ml soluble human BCMA-his protein. As to the method: Briefly, 10⁵ HEK293A/human BCMA cells in 100 μl culture medium were seeded on a 96-well plate, and the plate was further added with 50 μl serially diluted antibody or PBS followed by the human BCMA-his proteins (Cat #: 10620-H08H, Sino Biological) at the final concentration of 1 μg/ml. After 1-h incubation at 4° C., the plate was washed with PBS for three times, added with APC-goat-anti-mouse IgG (1:500 dilution, Cat #: 405308, BioLegend, US), inducted at 4° C. for 1 h, washed with PBS for three times, and measured for cell fluorescence using a FACS analyzer (BD).

The target in test [8] is monkey BCMA on HEK293A/monkey BCMA cells (monkey, UniProt Q02223 1-184 (human entry)). The experiment in a line: flow cytometry on HEK293A/monkey BCMA cells. As to the method:
as §1

In test [9] the target is T4, BCMA-his protein (Cat #: BCA-H522y, …). The experiment in a line: ELISA, coated BCMA protein. As to the method:
Briefly, an ELISA plate was coated with 100 μl 1 μg/ml BCMA protein (Cat #: BCA-H522y, ACRO) in PBS overnight at 4° C. Then, the plate was blocked with 250 μl PBST with 4% skimmed milk at room temperature for 1 h. […] The negative control well was added with PBST instead of the antibody. The plate was washed with PBST for three times, added with 100 μl HRP conjugated goat anti-human IgG (1:7000, Cat #: 31413, thermofisher), and incubated at room temperature for 1 h. The plate was washed again with PBST for four times, added with 100 μl freshly prepared TMB (Cat #: 555214, BD, USA), and left still for color development, which was terminated with 50 μl 10% H₂SO₄. The absorbance was read at 450 nm, and the data was processed and analyzed using GraphPad.
A general note: An ELISA detects its analyte on a solid surface through an enzyme-linked reagent.

Sequence of monkey BCMA on HEK293A/monkey BCMA cells (Q02223 other isoform, or with tags, fused parts or gaps): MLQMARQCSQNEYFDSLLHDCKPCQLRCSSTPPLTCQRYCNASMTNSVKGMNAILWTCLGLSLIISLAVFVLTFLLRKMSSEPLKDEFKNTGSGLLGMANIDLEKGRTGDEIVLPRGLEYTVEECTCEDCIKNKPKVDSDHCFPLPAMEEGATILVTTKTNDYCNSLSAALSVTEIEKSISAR

B1: anti-BCMA antibody A6-3, full-length human IgG1/kappa (antibody, V domains shown)
VH: QVQLVQSGAEVKKPGASVKVSCKASGYTFTNHIIHWVRQAPGQGLEWMGYINPYPGYHGYNDKFSGRATMTSDTSTSTVYMELSSLRSEDTAVYYCARDGYYRDQDVLDYWGQGTLVTVSS
VL: DIQMTQSPSSLSASVGDRVTITCKASQDISQYLNWYQQKPGKAPKLLIYYTSGLHPGVPSRFSGSGSGTDFTFTISSLEPEDIATYYCQQGYALPWTFGQGTKVEIKR
notes: Expressed in HEK293F cells, purified on Protein A
As to B1, the “EC50 (read off the curve)” value in test [1] is ~0.4 µg/mL; in test [7], ~1 µg/mL. For the same molecule, the binding result was “no binding (tested: 100 µg/ml and 10 µg/ml)” in test [2]; “no binding (tested: 100 µg/ml and 10 µg/ml)” in [4]; “no binding” in test [6]. The EC50 turned out to be 0.0415 µg/mL in [3], 0.0986 µg/mL in test [8] and 0.00733 µg/mL in test [9]. Moreover, the affinity in test [5], expressed as Kd, was 0.132 nM.
